Source: the DeepSol protein solubility set

Experiment: soluble on expression in E. coli; label from the status in PepcDB or PDB records

Sequence	soluble on expression in E. coli
MNTDVRIEKDFLGEKEIPKDAYYGVQTIRATENFPITGYRIHPELIKSLGIVKKSAALANMEVGLLDKEVGQYIVKAADEVIEGKWNDQFIVDPIQGGAGTSINMNANEVIANRALELMGEEKGNYSKISPNSHVNMSQSTNDAFPTATHIAVLSLLNQLIETTKYMQQEFMKKADEFAGVIKMGRTHLQDAVPILLGQEFEAYARVIARDIERIANTRNNLYDINMGATAVGTGLNADPEYISIVTEHLAKFSGHPLRSAQHLVDATQNTDCYTEVSSALKVCMINMSKIANDLRLMASGPRAGLSEIVLPARQPGSSIMPGKVNPVMPEVMNQVAFQVFGNDLTITSASEAGQFELNVMEPVLFFNLIQSISIMTNVFKSFTENCLKGIKANEERMKEYVEKSIGIITAINPHVGYETAAKLAREAYLTGESIRELCIKYGVLTEEQLNEILNPYEMIHPGIAGRK	soluble
MGSDKIHHHHHHMSTNPSLPWHAGELALQARVGVAAKMEDVGRRVMRDYMPDQHREFFAQMPFVVLGTVAPDGRVWATLRAGRPGFLQSPDARILELRLPREAADPADAGMEDGQPLGLLGIDLMTRRRNRMNGVLRRADRDGADLRIDVVQSFGNCPRYIQQRAFRFTRDPSEQTTIAPLAMGALDSRARALIASADAFFVASYADRPEAGRQVDVSHRGGEPGFVRIDADGGLTIPDFAGNLFFNTLGNFMVNPAAGVTFADFDTGELLQMSGRVEVIVDSPEIAAFQGAERLWRFFPEKIVRREAALPMRWARAGDAADE	not soluble
MSKLASPQSVRALLERHGLFADKRFGQNFLVSEAHLRRIVEAARPFTGPVFEVGPGLGALTRALLEAGAEVTAIEKDLRLRPVLEETLSGLPVRLVFQDALLYPWEEVPQGSLLVANLPYHIATPLVTRLLKTGRFARLVFLVQKEVAERMTARPKTPAYGVLTLRVAHHAVAERLFDLPPGAFFPPPKVWSSLVRLTPTGALDDPGLFRLVEAAFGKRRKTLLNALAAAGYPKARVEEALRALGLPPRVRAEELDLEAFRRLREGLEGAV	soluble
MTQPAAAVAAAAPAQTAPILGECVLKLSRSTTYEPPLYLFPELLPPVPQGTPPLPVWDAVADAVDIAASSWRVADATQLIAAGVAAAGTSGIKPSTGVERRPQAMVTLTSMIAENRLLAAGLDATVLERDAFSSAAIITHLAALQARMGLSDEEGAAIMSNHFINLLAWQKLRELNGPSLHAAVSRAEQKVSDEEAAGSAAFSPSHAAPPPSRKRSRADQDNDERDVWLPSPHPWATEAELAASDGSGRFVAVSEANVEQQVELLRTLAELYHRPWRTLASRGQQTDFVVPPGTVNVTSPFADNSKVPGALLDPATALGWGATLSSSLSTDYFGGVRVAHTACFYAVVLSAGTPTSAGKSVAPAPTRLPLDELTTYFGRESGVRGAAAVAAAAATPIAGALAPYTTHPEVLSRFQFALVLRPVYEHAADANEVRRPDSHLHVGKREPSTDDEASESDADAHQGHAAVLHTKRPHHYTLWLVNYGRNGVRVAGRGWVLSEPRQLQAGDVLIVGSEVQLRVEEHFSAAAARAPVVSDATLNTASVSSSQVKQERIEG	not soluble
MDGMGTLTRYLEEAMARARYELIADEEPYYGEIPDLPGVWATGKSLKECEANLQAALEDWLLFLLSRGETPPPLGEVRIELPHGEAA	soluble
MEMRELVGQFVERMQVLRHLVPILPDEQLYVRFESDDETALLLIGKESAARGMENDERKTLTVRGSKEALASLLNGELKLQQLVRLREVHVSGSFRQLLLLESLLHLAKPYRHVG	not soluble
MARLLMIPGPTPVDPEVLLAMARPVISHTSPDFDEIHGETVSMLQKLFRTSGKVFLLPGSGSLGMEFAVRSVAGRGSRALVLKAGYFGGYFERILRSLGASVTVVESPVGRGFTGADVEEALDRAGDVDVVFVQHVETSTSVANPVREIAGVVKKNGARLVVDGIASVGGMDLRLDEWGVDVALTGSQKALSTPPGLAIVAFSSEYSVELEKREPSGIYFDFLSLSREMESTRNYHITPAVNLVFALNASLKRILGEGLENRFERHRVLARAFTRAMEALGLRLVAEEPFRAWTVTAVYLPQGIDWSRFYSVMRKRGVEVAGGLGGLKGKIFRVGHMGEVDANDLIATIAAIERSLVELGYREARLGQGLEAAQKELSSLGL	soluble
MGDTKVETISRLAQWRIENFGPCSFKKSDPFKVGIWNWHLSIERNRYLSVRLFPELSRVSKEQPPVAKFVLRVSNVGPNRRFYISPVYEKLLRTTDDCVWHVDSSFHGRFTIDVEFLDLKICPVNGGEASPVWPTDATMQSISTQTTLKCLSRMLEESILTDVIIHTADGTLSAHKAILSASSTVFKSMFHHDLMEKESSTIHIDDMSRESCMALLSYLYGNITQEEFWKHRLALLGAANKYDITDLKAACEESLMEDINSSNVLERLQEAWLYQLEKLKKGCLMYLFDFGKIYDVREEISSFFRQADRELMLEMFQEVLSVWKPV	soluble
MGRVVLWLLLLALLPAYAQETYDWIVVLGAAQYGGRPSPALERRLQAALHLFREGRGRRIAVAGGKAPEDLYSEGEVGCRYLAARGVPEEALFCETRSRSTYENLLFLKPHLEGRLLLVTDAPHLPRALFLARLLGLEAEGYPVPGNYPLGYWAKEALYRLWLYLGLRPQGVFSSRFNASRAAALEHHHHHH	not soluble
MSSYRGGSRGGGSNYMSNLPFGLGYGDVGKNHITEFPSIPLPINGPITNKERSLAVKYINFGKTVKDGPFYTGSMSLIIDQQENSKSGKRKPNIILDEDDTNDGIERYSDKYLKKRKIGISIDDHPYNLNLFPNELYNVMGINKKKLLAISKFNNADDVFTGTGLQDENIGLSMLAKLKELAEDVDDASTGDGAAKGSKTGEGEDDDLADDDFEEDEDEEDDDDYNAEKYFNNGDDDDYGDEEDPNEEAAF	not soluble
MYSPKRVKLNVTSGMRKRPETGENNDDLYPPTALARNGISPYFIGKPRRKIVVETPSDSAQQQPPFKSRSQQNGLDDELDGIIIDEDEDRTVDVSFSQKQDTRKLKSRPFLGEKSSFKLGEIPKPKEEKRREEPFTMRGFDFGSDDKVTKIRDKICDIVDPTNARRTDPNFIRQMHENTLKGIEVASNPHFKKTRAPTKNRAAIQNTLGTLYPSFTTAAGQDPQNSKFQVPLDRQSSSQSIGSLAGIPPARRAPDIPKRCSNPLIRKAMGMDTEGGGKDEKMSGLRAEPTLKHFDENIISLIESEIMSVNNEIGWADVAGLEGAKKALREIVVLPFKRPDVFTGIRAPPKGVLLFGPPGTGKTMIGRCVASQCKATFFNISASSLTSKWVGEGEKLVRALFSVARLKLPSVIFIDEIDSLLSSRSESEHESSRRIKTEFLVQLDGVNTAPDERLLVLGATNRPQELDEAARRRFQKRLYIALPEPESRTQIVQNLLVGTRHDITNHNLERIRELTDGYSGADMRQLCTEAAMGPIRDIGDDIETIDKDDIRAVTVMDFAEAARVVRPTVDDSQLDAYAAWDKKFGCLPPPSISR	not soluble
MGSDKIHHHHHHMGKSKRKILNWKQYNQALVNRGSVTFWLDKSAINAWHCKAHHGGRGRGFQFSDTAIETALMLKGVFKLSLRATEGFINSLFRLMDVPLAAPDYTCISKRAKTVEVKYRNPCRGPVTHLVVDSTGLKVYGEGEWKTRKHGKERRRTWRKLHLAIDADTHDVVSAEVSLVNVADNEVLPTMLNPLRRKVNQVSADGAYDTKECHKLLRHKGAKPTIPPRSNAGYWEDGHPRNEAVEALKSGTLKQWKDDNDYHQRSLSETAMYRYKQLISSKLSLRDYNAQVGEALAGVKAMNKVIGLGMPVRQTTA	not soluble
SLSPAMSFLKSFPPPGSADGLRLQQPDTEAVLNGKGLGTGTLYIAESRLSWLDGSGLGFSLEYPTISLHAVSRDPNAYPQEHLYVMVNAKLGEESKEPLSDEDEEDNDDVEPISEFRFVPSDKSALEAMFTAMCECQALHPDPEDEDSDDYDGEEYDVEAHEQGQGDIPTFYTYEEGLSHLTAEGQATLERLEGMLSQSVSSQYNMAGVRTEDSVRNYEDGMEVETTPTVAGQFEDADVDH	soluble
TVAYIAIGSNLASPLEQVNAALKALGDIPESHILTVSSFYRTPPLGPQDQPDYLNAAVALETSLAPEELLNHTQRIELQQGRVRKAERWGPRTLDLDIMLFGNEVINTERLTVPHYDMKNRGFMLWPLFEIAPELVFPDGEMLRQILHTRAFDKLNKW	soluble
MDRRIAMSLQVLGAGLGRTGTLSLKFALEHLGFGPCYHATEVAANMRTALPLWNAAERGAADWSAIFAGYRSSTDHPGCYYWRQLIEVYPQAKVVLTVRDPDSWFESVTQTILMPGRKSTFVGPEGETFSTFLKQQMGGRSQDRAFMVDYFNRWNQAVIDAVPSDRLLVFSSRQGWAPLCGFLSVPVPHKPYPHLHARPRLRWFTRGLRLPDDVAARERHVREYLQYLREDLFGLEHHHHHH	soluble
MPGFAIGQTAYVVKTDSYRLLWDCITYLDETTIAKIKELGGLDAIALSHPHYYSTQVEWAETFDVPIYIHEDDKEWVMRPSSRIIYWSGESLQLADGITIHRLGGHFSGGSVLHWEEGNDGKGILLTGDIIQVVADERWVSFMYSYPNLIPLPARKVEEMVNRVKPLQFNRLYNAFHRVVKLEHHHHHH	soluble
MKLTIIRLEKFSDQDRIDLQKIWPEYSPSSLQVDDNHRIYAARFNERLLAAVRVTLSGTEGALDSLRVREVTRRRGVGQYLLEEVLRNNPGVSCWWMADAGVEDRGVMTAFMQALGFTTQQGGWEKCG	soluble
MKIQDLLKKEVMIMDLKATSKEAAIDEMITKLVDTGVVTNFAIFKDGIMKREAQTSTGLGDGIAMPHSKNAAVKEATVLFAKSASGVDYEALDGQPTDLFFMIAAPDGANDTHLAALAELSKYLLKEGFADQLRQAKTPDDIIATFDS	soluble
MGSDKIHHHHHHMRIALDPYMYRHLSLGAMVDKTAELGYDYIELSPREDFMPFYKYPRVDRARIREFRKALSDAGVKLSSLLPLYHWAAPDEDLRIAAVRNWKRAIEVAVEMDCDLMNTEFSGQSDHALVCENQFMKSMDELMPHFEREGIKLDIQAHPYDFCERNNESVDIIRGLDRDWINYLYAAPHTFFYDDGVGDIASMLRYAGDRLTHLIIADTYNHRASSNLRYIVNPPGVTATVHQHLDIGQGEVNWEAFFSTLRDIKFDGIATVAVFAWEERADESSRFMLERVKSELLR	not soluble
MKRDGHTHTEFCPHGTHDDVEEMVLKAIELDFDEYSIVEHAPLSSEFMKNTAGDKEAVTTASMAMSDLPYYFKKMNHIKKKYASDLLIHIGFEVDYLIGYEDFTRDFLNEYGPQTDDGVLSLHFLEGQGGFRSIDFSAEDYNEGIVQFYGGFEQAQLAYLEGVKQSIEADLGLFKPRRMGHISLCQKFQQFFGEDTSDFSEEVMEKFRVILALVKKRDYELDFNTAGLFKPLCGETYPPKKIVTLASELQIPFVYGSDSHGVQDIGRGYSTYCQKLEHHHHHH	soluble
MGSDKIHHHHHHMVQEIAQEIIRSARKKGTQDIYFVPKLDAYELHMRVGDERCKIGSYDFEKFAAVISHFKFVAGMNVGEKRRSQLGSCDYAYDHKIASLRLSTVGDYRGHESLVIRLLHDEEQDLHFWFQDIEELGKQYRQRGLYLFAGPVGSGKTTLMHELSKSLFKGQQVMSIEDPVEIKQDDMLQLQLNEAIGLTYENLIKLSLRHRPDLLIIGEIRDSETARAVVRASLTGATVFSTIHAKSIRGVYERLLELGVSEEELAVVLQGVCYQRLIGGGGIVDFASRDYQEHQAAKWNEQIDQLLKDGHITSLQAETEKISYS	not soluble
